Results published in paper PMC12409426, “Regulation of the MDM2-p53 nexus by a nuclear phosphoinositide and small heat shock protein complex” (The Journal of Biological Chemistry, 2025).

How the values were obtained:
Settings in all cases: both partners purified
[1] = biological target: T1, FLAG-tagged MDM2 (mammalian-expressed, PIPn-linked) (UniProt Q00987 1-491, PIP2 stably associated (PIPn-linked), site not told); test: MST; fluorescence-labeled αBC or HSP27 (target, 5 nM, RED-NHS) constant, non-labeled His-/FLAG-MDM2 or His-/FLAG-p53 titrated to 500 nM; 50 mM Tris-HCl pH 8.0, 50 mM NaCl, 80 mM KCl, 0.05% Tween-20
T1 construct: MDM2; cDNA purchased from OriGene; Its chemistry and site are unknown; also called FLAG-MDM2; PIPn-linked MDM2; source: HEK293FT, purified (FLAG Purification Kit), dialysed into PBS
T1 sequence (Q00987 whole entry): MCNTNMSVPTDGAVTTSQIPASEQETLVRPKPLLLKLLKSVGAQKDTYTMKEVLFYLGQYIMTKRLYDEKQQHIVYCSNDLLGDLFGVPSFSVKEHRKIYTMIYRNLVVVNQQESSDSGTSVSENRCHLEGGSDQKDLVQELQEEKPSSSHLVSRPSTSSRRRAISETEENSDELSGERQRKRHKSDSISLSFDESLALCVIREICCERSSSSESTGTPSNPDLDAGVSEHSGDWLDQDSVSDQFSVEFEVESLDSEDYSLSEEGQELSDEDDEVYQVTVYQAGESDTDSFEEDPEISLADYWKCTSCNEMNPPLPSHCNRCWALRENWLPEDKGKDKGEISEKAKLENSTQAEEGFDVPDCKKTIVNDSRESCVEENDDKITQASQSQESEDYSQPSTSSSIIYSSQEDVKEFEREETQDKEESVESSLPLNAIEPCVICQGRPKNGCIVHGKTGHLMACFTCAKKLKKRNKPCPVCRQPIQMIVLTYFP

[2] = biological target: T2, His-tagged MDM2 (recombinant, bacteria-expressed) (UniProt Q00987 1-491); test: as above
T2 construct: MDM2, E3 ubiquitin-protein ligase; His-tagged construct purchased from Genscript; also called His-MDM2; MDM2 recombinant protein; source: E. coli BL-21(DE3), purified (Ni-NTA-agarose)
T2 sequence (Q00987 whole entry): as above

[3] = biological target: T2, His-tagged MDM2 (recombinant, …); test: MST; fluorescence-labeled MDM2 (target, 5 nM, RED-NHS) constant, non-labeled ligand titrated to 500 nM; 50 mM Tris-HCl pH 8.0, 50 mM NaCl, 80 mM KCl, 0.05% Tween-20; Monolith NT.115 Pico

B1: αB-crystallin (recombinant, His-tagged) (natural protein, UniProt P02511 1-175, looked up)
chain: MDIAIHHPWIRRPFFPFHSPSRLFDQFFGEHLLESDLFPTSTSLSPFYLRPPSFLRAPSWFDTGLSEMRLEKDRFSVNLDVKHFSPEELKVKVLGDVIEVHGKHEERQDEHGFISREFHRKYRIPADVDPLTITSSLSSDGVLTVNGPRKQVSGPERTIPITREEKPAVTAAPKK
notes: αB-crystallin; His-tagged construct purchased from Genscript; source: E. coli BL-21(DE3), purified (Ni-NTA-agarose)
[1]
  Kd: 7 ± 1 nM
[2]
  Kd: 58 ± 5 nM
[3]
  Kd: 58 ± 5 nM
